Tests used:
S-protein = molecular target: T1, S-protein (Bos taurus, UniProt P61823); conditions: reference (3); cited from earlier work
T1 sequence (P61823 47-150 limits assumed): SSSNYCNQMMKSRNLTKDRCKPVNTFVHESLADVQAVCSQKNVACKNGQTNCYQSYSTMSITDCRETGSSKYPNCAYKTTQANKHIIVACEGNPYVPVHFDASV

Ribonuclease S-protein = molecular target: T2, Ribonuclease S-protein (Bos taurus, UniProt P61823); assay: Radiological screening of library spiked with YNFEVL-beads against 14C-S-protein, scintillation counting of isolated beads; format: binding
T2 construct: Ribonuclease S-protein was purchased from Sigma (St. Louis, Mo.); purchased Sigma (St. Louis, Mo.)
T2 sequence (P61823 47-150 limits assumed): T1 sequence (P61823 47-150 limits assumed)
Text: Following the protocol of Jentoft et al. (21), aminated beads (resin modified with TOTDA-linker) and proteins were labeled using reductive ^14 C-methylation. The ^14 C-methylated beads are hereafter referred to as ^14 C-Test Beads. The ^14 C-labeled formaldehyde was obtained from Dupont-NEN (55 Ci/mole, Boston, Mass.). Ribonuclease S-protein was purchased from Sigma (St. Louis, Mo.); human fibrinogen, from Chromogenix AB (Molndal, Sweden). To separate ^14 C-labeled protein from non-incorporated ^14 C-formaldehyde, an Econopac 10DG Desalting Column (Biorad, Hercules, Calif.) was employed. The ^14 C-labeled proteins were stored in the labeling buffer, 0.1M sodium phosphate buffer (Fisher, Pittsburgh, Pa.), pH 7, at -18° C. Pure protein solutions were quantitated using A280, with extinction coefficients of 1.5 and 0.73 for fibrinogen and S-protein, respectively. The resulting protein concentrations were 30 μM for ^14 C-S-protein, and 4 μM for ^14 C-fibrinogen. Maximal labeling yield was calculated based on maximum of two ^14 C-labeled methyl groups per mole of amino groups.
The number of disintegrations per minute, DPM, of radioactive samples was determined using a 1500 TriCarb Liquid Scintillation Analyzer from Packard (Meridan, Conn.) and CytoScint ES scintillation liquid from ICN (Casta Mesa, Calif.). Values of DPM are corrected for the background of the liquid scintillation counter (30-35 DPM) unless specified otherwise.
Library beads, 20 mg in dry weight per experiment, were first mixed with 1 ml of blocking solution to block non-specific interactions between the peptides and ^14 C-protein. For screenings against S-protein, 2% bovine serum albumin (BSA, Sigma) in PBS containing 0.05% Tween (Sigma) was used as blocking solution. For screenings against fibrinogen, either 2% BSA in PBS with 0.05% Tween or Blocker™Casein (1%) in PBS (Pierce) was used. Each mixture of beads and blocking solution was incubated in a Cryotube (Nunc, Denmark) for 2 hours on a tube rotator.
The blocked library beads were then exposed to target protein by pipetting the ^14 C-labeled protein directly into the mixture of beads and blocking solution. […] For fibrinogen experiments, 13 μl and 65 μl of the 4 μM ^14 C-fibrinogen solution was added, yielding final fibrinogen concentrations of 50 nM and 250 nM, respectively. The mixtures of beads, blocking solution, and protein solution were further rotated for 1.5 hours (S-protein experiment) and for 1 hour (fibrinogen experiment).
After completion of blocking and binding, the beads were transferred to a Polyprep column (Biorad) and rinsed with PBS containing 0.05% Tween 20 (Sigma) until the column flow-through reached background DPM levels. The total rinsing volumes were 200 ml and 140 ml for S-protein and fibrinogen, respectively. […]

## YNFEVL
S-protein
  association constant for binding S-protein: 10^4 -10^5 M^-1
Ribonuclease S-protein; 14C-S-protein 1 µM in PBS with 0.05% Tween 20, 2% BSA, average of isolated positive beads
  amount of protein bound per bead, average: 133 fmol protein/bead
Ribonuclease S-protein; 14C-S-protein 1 µM in PBS with 0.05% Tween 20, 2% BSA, background (33 DPM) subtracted
  radioactivity of 14C-S-protein bound per bead: 41-243 DPM/bead
Ribonuclease S-protein; 14C-S-protein 1 µM in PBS with 0.05% Tween 20, 2% BSA, range over isolated positive beads
  amount of protein bound per bead: 49-289 fmol protein/bead
Ribonuclease S-protein; from average 70 pmol peptide/bead and 133 fmol protein/bead
  peptide to protein ratio (YNFEVL-peptide molecules to 1 S-protein molecule): ~500

From patent US5783663A, “Peptide ligands for affinity purification of fibrinogen” (Bayer Corporation, priority 1998, dated 1998)
